Experimental data reported in the supplement of paper PMC10126150.
± gives the standard deviation of the averaged measurements.

System: ATP
Experiment: switch fluorescence ratio, 500 uM ATP over buffer (Cy3 cluster intensity, sum of 5 cycles each) (fold (ratio)); higher = stronger signal-on switching upon ATP binding; sequences stand for … in TCGTCGGCAGCGTCAGATGTGTATAAGAGACAGTTTTTTTTTTTTTTTTTTTTTTTTT…TC
Conditions: aptamer strand: ATP DNA aptamer (quencher-CACCTGGGGGAGTATTGCGGAGGAAGG + anchor), 100 nM annealed; ATP concentration: 500 uM
Summary of the method: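 Clusters with intensities outside 100-1000 RFU were excluded. The remaining Cy3-labelled switching-strand clusters on a modified Illumina MiSeq flow-cell had been annealed to 100 nM quencher-labelled ATP aptamer and imaged in selection buffer, then after 15 min with 500 uM ATP at 22 °C, for five cycles separated by NaOH stripping and re-annealing. The fluorescence ratio, averaged per switch-domain sequence, is each cluster's summed target-cycle Cy3 intensity over its summed buffer-cycle Cy3 intensity.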
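Also: ATP exposure 15 min at 22 °C before imaging.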

| Sequence | switch fluorescence ratio |
| --- | --- |
| TGATCGGGCA | 0.956 ± 0.031 |
| TGATCGTGAG | 1.02 ± 0.017 |
| TGATGAGATC | 0.9734 ± 0.0082 |
| TGATGAGTCG | 1.0211 ± 0.00074 |
| TGATGATATA | 1.02 ± 0.013 |
| TGATGCAAGA | 1.3 ± 0.063 |
| TGATGCATGG | 1.05 ± 0.048 |
| TGATGGAGTA | 0.969 ± 0.016 |
| TGATGGCAAC | 1.11 ± 0.036 |
| TGATGGGGCG | 0.982 ± 0.023 |
| TGATGGGTC | 0.9961 ± 0.0054 |
| TGATGGTGC | 1.05 ± 0.066 |
| TGATGTGGGA | 1.027 ± 0.0047 |
| TGATGTTAAA | 0.998 ± 0.01 |
| TGATGTTATA | 0.968 ± 0.022 |
| TGATTAAGAT | 0.994 ± 0.026 |
| TGATTAGAGG | 1.02 ± 0.1 |
| TGATTATCTT | 1.047 ± 0.0097 |
| TGATTATTT | 0.978 ± 0.032 |
| TGATTCCGCT | 1.41 ± 0.025 |
| TGATTCCTGC | 1.02 ± 0.039 |
| TGATTCGAGC | 1.003 ± 0.0058 |
| TGATTCGGGT | 0.984 ± 0.029 |
| TGATTCGTTT | 0.985 ± 0.094 |
| TGATTGGTAA | 0.939 ± 0.021 |
| TGATTGTATC | 0.981 ± 0.055 |

| Sequence | switch fluorescence ratio |
| --- | --- |
| TGATTGTGTA | 0.987 ± 0.048 |
| TGATTGTTTG | 1.01 ± 0.034 |
| TGATTTAATA | 0.984 ± 0.025 |
| TGATTTATG | 1.01 ± 0.002 |
| TGATTTATTC | 0.9632 ± 0.0032 |
| TGATTTGGAC | 1.01 ± 0.061 |
| TGATTTTCTC | 1.01 ± 0.048 |
| TGATTTTGCC | 1.01 ± 0.018 |
| TGATTTTTGT | 0.997 ± 0.021 |
| TGCAAAAAGG | 1.03 ± 0.014 |
| TGCAAATTGC | 0.997 ± 0.019 |
| TGCAACCTCC | 2.29 ± 1.1 |
| TGCAAGGGCG | 0.981 ± 0.021 |
| TGCAATGATG | 1.04 ± 0.039 |
| TGCAATGGGC | 1.21 ± 0.086 |
| TGCAATGGGG | 1.12 ± 0.07 |
| TGCAATTCGT | 1.13 ± 0.033 |
| TGCAATTTCG | 1.07 ± 0.065 |
| TGCAATTTTA | 1.03 ± 0.023 |
| TGCACGATTG | 1.03 ± 0.03 |
| TGCACGGCTT | 1.13 ± 0.03 |
| TGCACTAGAA | 1.01 ± 0.017 |
| TGCAGATCGG | 0.9927 ± 0.0028 |
| TGCAGATTTT | 0.994 ± 0.033 |
| TGCAGCATCT | 1.13 ± 0.032 |
| TGCAGCTTGC | 1.25 ± 0.24 |

| Sequence | switch fluorescence ratio |
| --- | --- |
| TGCAGGAATT | 1.09 ± 0.17 |
| TGCAGGGGTT | 1.05 ± 0.02 |
| TGCAGTGGGG | 1.014 ± 0.0085 |
| TGCATATAAT | 1.018 ± 0.0014 |
| TGCATATATA | 1.29 ± 0.36 |
| TGCATGTCTC | 1.43 ± 0.46 |
| TGCATGTCTT | 0.998 ± 0.033 |
| TGCATTAATG | 0.989 ± 0.012 |
| TGCATTAGGG | 0.993 ± 0.046 |
| TGCATTCAGG | 1.02 ± 0.03 |
| TGCATTCTTT | 0.9999 ± 0.0052 |
| TGCATTTATG | 1.02 ± 0.043 |
| TGCCAAGGTT | 1.02 ± 0.034 |
| TGCCACTCTG | 1.025 ± 0.008 |
| TGCCAGTGTT | 1.22 ± 0.32 |
| TGCCAGTTTG | 0.9907 ± 0.0065 |
| TGCCATAATG | 1.02 ± 0.0057 |
| TGCCCATGGG | 0.9956 ± 0.0045 |
| TGCCCTATTT | 0.986 ± 0.025 |
| TGCCCTGCCT | 1.03 ± 0.024 |
| TGCCGACGGG | 1.01 ± 0.019 |
| TGCCGGAAGA | 1.02 ± 0.029 |
| TGCCGGATTT | 1.02 ± 0.018 |
| TGCCGGCTCG | 1.01 ± 0.012 |
| TGCCGGTTTT | 1.01 ± 0.036 |
